Measured values from IntAct's records for PubMed 16628218.

B1: Beta-chimaerin (Homo sapiens), P52757 (parent)
chain: MAASSNSSLSGSSVSSDAEEYQPPIWKSYLYQLQQEAPRPKRIICPREVENRPKYYGREFHGIISREQADELLGGVEGAYILRESQRQPGCYTLALRFGNQTLNYRLFHDGKHFVGEKRFESIHDLVTDGLITLYIETKAAEYISKMTTNPIYEHIGYATLLREKVSRRLSRSKNEPRKTNVTHEEHTAVEKISSLVRRAALTHNDNHFNYEKTHNFKVHTFRGPHWCEYCANFMWGLIAQGVRCSDCGLNVHKQCSKHVPNDCQPDLKRIKKVYCCDLTTLVKAHNTQRPMVVDICIREIEARGLKSEGLYRVSGFTEHIEDVKMAFDRDGEKADISANVYPDINIITGALKLYFRDLPIPVITYDTYSKFIDAAKISNADERLEAVHEVLMLLPPAHYETLRYLMIHLKKVTMNEKDNFMNAENLGIVFGPTLMRPPEDSTLTTLHDMRYQKLIVQILIENEDVLF

Variants of: B1
Conditions: with rac1_human RAC1, P63000

Variant | effect of a mutation on the interaction
C264A | disrupting interaction
Q32A | increasing interaction
